Laboratory results taken from article PMC10397247.

Columns and labels:
[1] = target: T1, 4H454-bA; experiment: two-hybrid library CCNG1;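 also: natural log of median RNA to DNA barcode read ratio; higher means stronger binding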
T1 chain: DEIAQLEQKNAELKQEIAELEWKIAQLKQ

[2] = target: T2, 4H967-bA; experiment: two-hybrid library CCNG1;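 also: natural log of median RNA to DNA barcode read ratio; higher means stronger binding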
T2 chain: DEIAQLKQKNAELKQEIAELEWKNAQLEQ

[3] = target: T3, 4H3843-bA; experiment: two-hybrid library CCNG1;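 also: natural log of median RNA to DNA barcode read ratio; higher means stronger binding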
T3 chain: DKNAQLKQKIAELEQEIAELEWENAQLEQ

[4] = target: T4, 4H462-bN; experiment: two-hybrid library CCNG1;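 also: natural log of median RNA to DNA barcode read ratio; higher means stronger binding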
T4 chain: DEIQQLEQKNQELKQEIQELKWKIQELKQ

[5] = target: T5, 4H568-bA; experiment: two-hybrid library CCNG1;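 also: natural log of median RNA to DNA barcode read ratio; higher means stronger binding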
T5 chain: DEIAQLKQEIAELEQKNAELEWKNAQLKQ

[6] = target: T6, 4H754-bA; experiment: two-hybrid library CCNG1;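 also: natural log of median RNA to DNA barcode read ratio; higher means stronger binding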
T6 chain: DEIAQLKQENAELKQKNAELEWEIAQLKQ

[7] = target: T7, 4H3855-bH; experiment: two-hybrid library CCNG1
T7 chain: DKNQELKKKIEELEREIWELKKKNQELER

[8] = target: T8, 4H3855-bA; experiment: two-hybrid library CCNG1
T8 chain: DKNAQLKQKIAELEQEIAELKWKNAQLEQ

[9] = target: T9, 4H953-bA; experiment: two-hybrid library CCNG1
T9 chain: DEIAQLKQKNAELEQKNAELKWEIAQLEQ

[10] = target: T10, 4H908-bA; experiment: two-hybrid library CCNG1
T10 chain: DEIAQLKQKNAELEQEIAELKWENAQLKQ

[11] = target: T11, 4H797-bA; experiment: two-hybrid library CCNG1
T11 chain: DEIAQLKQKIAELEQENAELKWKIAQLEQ

[12] = target: T12, 4H3782-bA; experiment: two-hybrid library CCNG1
T12 chain: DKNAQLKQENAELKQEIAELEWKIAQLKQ

[13] = target: T13, 4H72-bA; experiment: two-hybrid library CCNG1
T13 chain: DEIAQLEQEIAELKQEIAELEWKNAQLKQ

[14] = target: T14, 4H687-bN; experiment: two-hybrid library CCNG1
T14 chain: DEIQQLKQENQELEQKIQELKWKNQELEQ

[15] = target: T15, 4H4001-bA; experiment: two-hybrid library CCNG1
T15 chain: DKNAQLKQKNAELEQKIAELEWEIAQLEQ

[16] = target: T16, 4H462-bA; experiment: two-hybrid library CCNG1
T16 chain: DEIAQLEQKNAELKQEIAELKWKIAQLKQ

[17] = target: T17, 4H687-bA; experiment: two-hybrid library CCNG1
T17 chain: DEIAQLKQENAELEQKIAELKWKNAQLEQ

[18] = target: T18, 4H883-bA; experiment: two-hybrid library CCNG1
T18 chain: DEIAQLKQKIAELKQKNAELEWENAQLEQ

[19] = target: T19, 4H607-bA; experiment: two-hybrid library CCNG1
T19 chain: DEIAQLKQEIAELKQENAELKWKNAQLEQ

[20] = target: T20, 4H918-bA; experiment: two-hybrid library CCNG1
T20 chain: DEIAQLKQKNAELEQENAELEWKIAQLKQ

[21] = target: T21, 4H717-bA; experiment: two-hybrid library CCNG1
T21 chain: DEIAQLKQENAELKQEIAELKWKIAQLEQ

[22] = target: T22, 4H584-bA; experiment: two-hybrid library CCNG1
T22 chain: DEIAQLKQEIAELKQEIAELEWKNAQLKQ

[23] = target: T23, 4H906-bA; experiment: two-hybrid library CCNG1
T23 chain: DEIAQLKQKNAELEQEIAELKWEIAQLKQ

[24] = target: T24, 4H850-bA; experiment: two-hybrid library CCNG1
T24 chain: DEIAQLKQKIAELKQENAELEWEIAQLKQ

[25] = target: T25, 4H918-bH; experiment: two-hybrid library CCNG1
T25 chain: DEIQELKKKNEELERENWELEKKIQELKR

[26] = target: T26, 4H570-bA; experiment: two-hybrid library CCNG1
T26 chain: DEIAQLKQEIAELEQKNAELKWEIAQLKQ

[27] = target: T27, 4H619-bA; experiment: two-hybrid library CCNG1
T27 chain: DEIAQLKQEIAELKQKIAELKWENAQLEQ

[28] = target: T28, 4H3974-bA; experiment: two-hybrid library CCNG1
T28 chain: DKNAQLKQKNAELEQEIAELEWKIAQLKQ

[29] = target: T29, 4H3817-bA; experiment: two-hybrid library CCNG1
T29 chain: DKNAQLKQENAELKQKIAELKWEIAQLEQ

[30] = target: T30, 4H883-bN; experiment: two-hybrid library CCNG1
T30 chain: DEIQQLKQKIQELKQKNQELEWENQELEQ

[31] = target: T31, 4H3638-bA; experiment: two-hybrid library CCNG1
T31 chain: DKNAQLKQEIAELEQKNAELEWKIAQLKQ

[32] = target: T32, 4H953-AA; experiment: two-hybrid library CCmax; conditions: mean of both orientations
T32 chain: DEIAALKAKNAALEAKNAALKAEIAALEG

[33] = target: T33, 4H918-AA; experiment: two-hybrid library CCmax; conditions: mean of both orientations
T33 chain: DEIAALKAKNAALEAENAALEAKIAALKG

[34] = target: T34, 4H883-AA; experiment: two-hybrid library CCmax
T34 chain: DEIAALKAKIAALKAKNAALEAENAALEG

[35] = target: T35, 4H967-AA; experiment: two-hybrid library CCmax; conditions: mean of both orientations
T35 chain: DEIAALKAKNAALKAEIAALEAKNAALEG

[36] = target: T36, O7-bA; experiment: two-hybrid library CCNG1
T36 chain: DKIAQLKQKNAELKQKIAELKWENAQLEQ

[37] = target: T37, O8-bA; experiment: two-hybrid library CCNG1
T37 chain: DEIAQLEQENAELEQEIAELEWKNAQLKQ

[38] = target: T38, O9-bA; experiment: two-hybrid library CCNG1
T38 chain: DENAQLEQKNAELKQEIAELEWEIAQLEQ

DKNAQLKQENAELKQEIAELEWKIAQLKQ [4H3782-bA]
interaction score [1]: 1.64 | interaction score [2]: 0.0169 | interaction score [3]: 1.18 | interaction score [4]: 1.22 | interaction score [5]: -1.41 | interaction score [6]: -0.898 | interaction score [7]: 0.603 | interaction score [8]: 0.312 | interaction score [9]: -1.07 | interaction score [10]: -1.42 | interaction score [11]: 0.173 | interaction score [12]: 1.29 | interaction score [13]: -0.987 | interaction score [14]: 0.761 | interaction score [15]: 0.27 | interaction score [16]: 0.962 | interaction score [17]: 0.572 | interaction score [18]: 0.21 | interaction score [19]: -0.58 | interaction score [20]: -1.34 | interaction score [21]: -0.182

DKNAQLKQKIAELEQEIAELEWENAQLEQ [4H3843-bA]
interaction score [2]: -1.25 | interaction score [3]: -0.878 | interaction score [5]: -1.79 | interaction score [9]: -1.38 | interaction score [11]: -0.879 | interaction score [13]: 0.286 | interaction score [15]: -0.268 | interaction score [16]: -0.841 | interaction score [17]: -0.85 | interaction score [18]: -1.14 | interaction score [19]: -0.651 | interaction score [20]: -1.1

DKNAQLKQEIAELEQKNAELEWKIAQLKQ [4H3638-bA]
interaction score [22]: -1.67 | interaction score [23]: -1.97 | interaction score [24]: 0.728 | interaction score [25]: 0.343 | interaction score [26]: -0.717 | interaction score [27]: -0.0681 | interaction score [28]: 0.0825 | interaction score [29]: -0.0786 | interaction score [30]: -2.2 | interaction score [31]: 0.115

DEIAALKAKIAALKAKNAALEAENAALEG [4H883-AA]
interaction score [32]: -2.05 | interaction score [33]: -1.46 | interaction score [34]: -1.73 | interaction score [35]: -2.15

DENAQLEQEIAELEQKNAELKWEIAQLEQ [O5-bA]
interaction score [36]: -0.303 | interaction score [37]: -0.893 | interaction score [38]: -0.954
